Source: paper PMC7402102

What was measured:
CC(=O)CC(=O)O = assay: purified protein; conditions: 1 mM succinyl-CoA, pH 8.6, 37 °C, 15 mM MgCl2
[1] = system: CC(C)(COP(=O)(O)OP(=O)(O)OC[C@H]1O[C@@H](n2cnc3c(N)ncnc32)[C@H](O)[C@@H]1OP(=O)(O)O)[C@@H](O)C(=O)NCCC(=O)NCCSC(=O)CCC(=O)O; assay: purified protein; conditions: acetoacetate co-substrate, pH 8.6, 37 °C, 15 mM MgCl2

Question: What does the source list for HsSCOT (Homo sapiens)?
Answer: Km (CC(=O)CC(=O)O): 765 µM; kcat (CC(=O)CC(=O)O): 105 s⁻¹; Km [1]: 971 µM; kcat [1]: 190 s⁻¹
